Experimental findings from PMC11281603 are described below.

The experiment deals with polymeric Ig receptor (pIgR) fused to the FLAG tag (UniProt P01833). The following applies: parent: 1.00.
Chain of UniProt P01833 (P01833 19-764): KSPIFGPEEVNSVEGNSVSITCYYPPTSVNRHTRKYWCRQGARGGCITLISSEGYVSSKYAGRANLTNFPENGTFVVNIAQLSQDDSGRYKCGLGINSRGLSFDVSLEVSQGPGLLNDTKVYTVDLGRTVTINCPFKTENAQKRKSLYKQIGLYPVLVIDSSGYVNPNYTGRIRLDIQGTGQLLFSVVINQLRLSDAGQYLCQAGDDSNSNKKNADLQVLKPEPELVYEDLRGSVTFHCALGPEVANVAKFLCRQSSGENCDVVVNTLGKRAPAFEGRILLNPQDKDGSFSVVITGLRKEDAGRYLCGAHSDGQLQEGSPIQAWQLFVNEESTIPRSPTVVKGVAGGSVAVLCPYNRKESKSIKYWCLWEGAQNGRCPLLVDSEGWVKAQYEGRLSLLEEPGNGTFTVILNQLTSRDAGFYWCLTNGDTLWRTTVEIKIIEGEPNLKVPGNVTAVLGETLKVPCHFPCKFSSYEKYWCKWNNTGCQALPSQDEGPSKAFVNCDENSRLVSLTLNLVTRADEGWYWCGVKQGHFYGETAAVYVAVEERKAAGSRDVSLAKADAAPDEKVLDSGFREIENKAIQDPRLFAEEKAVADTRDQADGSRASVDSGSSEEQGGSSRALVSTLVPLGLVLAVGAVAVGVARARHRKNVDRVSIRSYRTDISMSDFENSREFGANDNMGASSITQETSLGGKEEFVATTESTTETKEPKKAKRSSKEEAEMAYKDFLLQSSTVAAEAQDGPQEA

With “WT SARS-CoV-2 ORF8 fused to a C-terminal Strep-II tag (from UniProt P0DTC8) C20A”, the ratio to parent was 0.43. As for “WT SARS-CoV-2 ORF8 fused to a C-terminal Strep-II tag (from UniProt P0DTC8) R115A”, the figure is 1.
